Data from the NTF2 design screens of Basanta et al. (2020).

Experiment: protease stability score; higher = more stable; yeast display proteolysis, trypsin and chymotrypsin;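 also: relative to predicted unfolded state with 0 unfolded-like and 1 meaning tenfold more protease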

Row | Sequence | protease stability score
1 | SEEDEDKELVRHLVEKLIKTGDETLMHEMFDPNARLRVNGRDFHGRESIVKAMLEFLRWLGVDHIHFEHIIVRIVDGRIEINVTVRVEQGDKRTELRIHTRATKIDGKWILTSLTLDVR | 1.13
2 | SEEDEDVKRILELWLRSEETGDEHLSLELADPNTRKHQGDKEFHGMSKLVQLLAELYRRADHSHFIEKRVEVFENHVRIVGHFVLIVGEFRIVVDILILARKIDGRWILTRVNWR | 1.51
3 | SEEDEEAERMVRALNHKFRTGDWELSEKLFDPNTKLEIIINGKHIDIHGREMVIRLMEDELRRFDHVDIEIKRVDSQGEKANNDGVLVIKQGDFEVRHRFTLIIHVVNGVIKKISILFH | 0.996
4 | SEEDEEAERWVRMLEHLIRTGDEEILNSFADPNVRYIQGDKHLHGRETVYEYLEELWRKLGVDHMNIKDRHLRVFNGRVHLQLFVHFTVNGRSFDSILRFDTIKIDGQWHMHRIVVEII | 1.31
5 | SEEDEEFKHHIKLLIESLETGDWRTDRRLADPHVRLEVGDKTIHGMDEYLEFMSEIRFTRLEISSVEIQGDKLHANGETDGIVNGKRVKVESTFIIIKVDGRWIIEHERMH | -0.372
6 | SEEDEEFRHVVERWVRAVTTGNEDELESLLDPNVRLDVGDKRTHGREKWTELFRHLRTQVHHIEITEKHTVGDKVHYRGTLDMTFYVDGVDVRSETETTLVMVKYNGRWQYTHVIIH | 1.15
7 | SEEDEEIHRNLRILVEAIHTGDETTMSKLIDPHARLKVGDKDHHGREKMTEFLIELGIDHIVFRRTRIINGRAEHHGHIKVGDKKMETRIISDKIDGKWIITEVIIH | 1.51
8 | SEEDEELKEWLEEFVHALKTGDENLLQRLADPNTRLIFDGRKFHGREEYRKNYEHLRHRIDHIHDEKSTTVHLINGKVTVESRLDGEINGKRIIFKTIIFYWKFDGRWFLRSEEIR | 0.935
9 | SEEDEELREMARLIILLEWTGDEETFEHLADPHVRSHINGVHLHGRETVSKWLMHVREHLRFNDIRIRDLWVFNGKVKINGEYDGHVNGRRIRYTVHLYFVIIDGRIREISREHR | 0.301
10 | SEEDEERKHFLELWRESFETGDEDSSRDMADPNTRIHIGDKEQVGWEDVMHEMVKIKNARYHIVVHHVEIQGDKLTMDGEVRIDVNGRLIQIRTIIIARKYDGRWIVTHVHIH | 1.3
11 | SEEDEETEHITRLIFRAMVTGDWKELLDNLDPHTRVDINGRDQHGWEVMREWVERIKNVQLRIRRISVQGDKTRLDTEFRQGDKSVHVEVRITIVDGVVQHIEFKDR | 1.6
12 | SEEDEETRKFLDLLFETRHTGDEEMSRQLADPNYQEEFENHTFHGREDFSRFIKELRIHEIRITHIYAQGDKLHIDGELRGEFNGQEVRFRVELHVVKIDGRWVLKSMRVV | 1.44
13 | SEEDEEVRHVLELLIHAWRTGDERLLMHLLDPHAKFIVGDKELHGREQISRVWKELRIEDSDVHSIELVNGRLRLDTHLIITIGDKHVDVKTRELIVKIDGRWVLEFLEVR | 1.37
14 | SEEDEFNREMRREIIEAWETGDFRIIEKLLDPNAKVVVGDYIDHGRHAIEVWLKRYDVRRRRDYKHVEVYDGVIRSDVRMDGEINGQRKITSVHIIFVIINGRIHQVEIHIH | 1.25
15 | SEEDEFVHEMVEILLKMFLTGDFQHFKRLADPHVMFVFNGKRFHGRHWVLDELIRFPNIKFELTHYEFDDINGVVHINIFGQRDVDGKNENVELHFVVEKVDGRWKIHRIIFRLR | 1.11
16 | SEEDEHAEHMLRLWLHAIETGDEKLLLELVDPHAKNDVNGVDLHGRHEVWRHVYEMLHKFKNIRWDITETRYIGDYVHIRGILRQGDKTHDIRIKVVSFNGRIKKVEIRIE | 2.48
17 | SEEDEHLERLFRDLIDSFVTGDEDSWHQLADPNARLIVGDKTYHGREKISEYWRRMREEIRVEIKVDHVDIQGDKVHSRVTLIVRINGREIRRDTHMLIIVWNGRFKEERIIPR | 1.25
18 | SEEDEHLRHLAELFVKLLLTGDFNTLHHLLDPHVKFNIGEFESHGMEHLWRAWEEWRFHHISLEDVRVQGDKAHLHFRSTVHYNGRTKRVDTHVEIKVVNGRFKEVHIRIH | 1.59
19 | SEEDEHMRRLVEIIIHNWHTGDEEKLANMMDPNAKSNINGVELIGRDLITSFLKEELKRLGVKHVHDTEIHLQGNKSIIHSRVHVNGVDIEMEIIIIIIDGVIKEVEWRRR | 1.96
20 | SEEDEHSERALTLLNHLIMTGDFHDWERFFDPHVRFVVNGVEFHGREDVVRFLLELLERFKNVKIEMESWEIQGDKITSHYHEHVNGVRIERTVIMRKFNGRWFIQEVRFN | 0.281
21 | SEEDEIAEKILRLYLELFKTGDWRRFEELLDPNVRLEFNGRFYHGREEISRIMKEFHNKFKNVRIELTSFEVQGEKNIMRSSENINGVERETEIYLDIWNGRIQSLIIRVR | 2.25
22 | SEEDEIAKHVWERFFKNVLTGDEDTLLRLLDPDTRLIVIIGDKEIHLHGREELSKFLSELRIHHLEITDWVSQGEKARTHVRSDGTVDGKRHHTEMELILIVINGRIKEIRILVR | 1.07
23 | SEEDEIMRRLIDITLHAFQTGDWEAVKTMADPNTRLHVNGRDIHGRDEILRFLEKSRRDLGVENIRIDYTDYRQFDGKVKYHGTDIYNGQRLETTIIIVIVDGKMKTETREIR | 0.82
24 | SEEDEIVRKLSEIMIHSLETGDFDSFRELADPDYRIETEDHEIVGMEEFERWLKEHLDRFDYDKWEYHSLHIYGDKVKMDIELHLDIDGVKRTHDVYIIIRKYNGQWIVESFMFK | -0.384
25 | SEEDEKKEEETRLMLEWWRTGDEHAIARNMDPDARLEVDGKERHGREEVLRFISEMLKRLGVDHVRITDWRIIGDFVEVDLSIEVGDKSRKFHLHFFIIDGRIKEIKIDER | 1.39

Row | Sequence | protease stability score
26 | SEEDEKSHKLWEEMLEIFMTGDWKRESELADPEARRVFIVDGVNHVFHGRETITEALLRWHKEMRVHDFKLHDRRYQGEKFHVDGIVDGEYNGKKRIYEVEIIIIVVDGRVHSLEFEHK | 0.296
27 | SEEDELAHRWVRTWVRAVETGDEDTLTELFDPHARIIITIGDKDIRLHGMHEMLRWYRFFKGMRIELEDMDIQGEKIDTDIRLHQGDKTTTTKLQLHIVNGRMEHVILRVQ | 1.54
28 | SEEDELAKRILETLVRLLLTGNEELRHELADPNMRTEVDGVDLWGMHNDVHFWREIRLKELRIRHIEVQGDKSHSITDLDVEIDGKRIRVETKIRVVVVNGKIHRLHVRID | 1.51
29 | SEEDELAKYVIRLWVEEFRTGDEESMFRLLDPHVLVQQGDKEYHGRERWEDFIRKLGLQNVRVEVHRVTIQGEFIHVDGIIEIGDKRTRYILYFEKFNGRWINKELRIK | 1.48
30 | SEEDELAMEFMREQDRNQETGDWRRLSELADPNTRVEVNGREIHGMELWIKLLINKLREHGMEVRLHVERVEFYDGVADLDLRLYIHINGKDIHFHTQIIILKINGKWILKYIIIR | 1.25
31 | SEEDELAREVSRIFTEASRTGDEERLIRLIDPHAKIQIGDKHFIGREDMEEWTRRLVERVDHLEVFIEDSRLIGNKLDVKGLFIEDYGDKRTVLEVRWILVKINGRWSIHSLHFK | 1.23
32 | SEEDELDERLLKIMRHAFETGDEEIFMRLVDPHTRTEFNGQEVHGREHLHRWLKEILRTLGVKYVERKDIRAWDGRIHLEFEMHVNGRTLKLTVVVIFINGKLHEYSERIE | 1.61
33 | SEEDELLREVFELWVEIVRTGDESRLKKLLDPHVRLIYNGRRYHGWEEVVRFYREWRIKSMSIHSIETQGDKAHANSETDIEYNGKRERSDIRIHMIVINGRIHHIEIREH | 2.39
34 | SEEDELMEEWRRLFIHSFLTGNEDELHRLIDPNARFIINGVNLHGWKALETKLRELGAKHIEVRERHEHRQGNKLELHVHIIIHQGDKDLREDVRIENEKVNGRWVVRTIEEK | 1.07
35 | SEEDELNHRISHLLTRMRRTGDEDTWHRLADPNMRLEINGVISHGREEALRILSEVDDILGIDRFSVHLDRYTWDGNYIHNDMTFEINGRDLRVHVDSLVINGRMHHERVRVE | -0.516
36 | SEEDELTRELVELWLHVFHTGDEEIMYKLADPNARVDVLIDGKRLDLVGREEIRRFLHEWHREAGFKHFDLHDIHFQGEKVHIDGREVYGDKFFRVIIHIHIVNGRIKSTKIEIR | 1.67
37 | SEEDELYRHIAEHLLHLLHTGNEEILDHLLDPHVKLEINIGDKRDEFIGRHSLREWLSRFKNVKLHVHDDKVINGVNHVDGTLDINGRRTHIEIHLHVYNGKVRRLQFNIH | 1.62
38 | SEEDEMAEEMMRWFLEILETGNEELFNHYADPNVIDIVGDKRVHGMDRFSELHHIFLRHWRIHRRRENTIETYNGRAHIDGEIEGKVNGREKNIRVEIKLNVVNGVIKKVEVTYN | 0.379
39 | SEEDEMIEELMRTIIRLFHTGDWEKKAKLMDPNTRSVIGDKHAHGREEIVRLFLEYWRELGIDHISIHDVKLQGDKVIVNGKLRVGEKTIDVRIHYVVVNGRLKSERFEEE | 0.327
40 | SEEDEMSKRFLDDLLHNLRTGDFDRLKNELDPHAKLVVDGQELHGMELASKRDLEMRVNHLEIRHVEIQGEWIHLKGEMDGEVNGKRNIHEVHVLLFKINGRWYVREVWIR | 1.41
41 | SEEDEMVRYVFELYAIAIETGDEDTLRNMFDPNAKIKFDGVDIHGRENIKRILREWRSSVHHWQIREKEIYGDKISLNVFQDLRFTIDGQFRRITTEVKVEIIKINGKWFFTHLEYI | 0.995
42 | SEEDEQSKKILHIFIEILKTGDFETLEHMLDPNAKLDIDGRDLHGRELFLSMWEEFVRQYKNLRIIFRDYRLYGDYVIIHGQLRINGKTHDLRFHIVNINGRLKHLKIEHE | 1.46
43 | SEEDERTYKVAKDWHEALQTGNEEIMERLLDPHVRIDVVVDGKKSHKHGMEVVSETLRRIREHLRMKWEIHRVDAQGDKLFVDGRYHIEVGDKKEHYIMHVLMIVIDGRLHSLTIRNE | 1.1
44 | SEEDEVSERLAREYLHIWKTGDEDRLAKLLDPHTRFIYVIGDKELELIGRDKFAEFLRHLWEELGVNHFDVHDFKVYGEKVQLDTTEEYGDKNFRMHIDIVVIDGKVKFIRIKER | 1.33
45 | SEEDEVTEKLVRLMIHAHHTGDEDLLKTLADPNVRLTIDYNGVKLTSHGREEFVRLLREWKRQIRIEDRKTTESHVYGNFAINNHVELGEFDGRRDRFEVRLHFVVFNGRVKEEKIKFD | 1.45
46 | SEEDEVYEEALKITERLERTGNEEDLRTYADPHAKLRFIVDGKTIEIHGREDFVHEVVRYWKRFKNLTVRIERVEFQGDKLHLIGRLHIDGREVIIHMLSVKFNGRWFVENLHIEFV | 1.41
47 | SEEDHDRELWISLLKKEAETGDERQVRENLDPNVQLDVGDKTFHGREIVLDHIHEEWKRLGLDRIKLFVDSIRIQGDKVRLDGSLDVNGKEIRVNIFLRKINGRWHIEFIHID | 0.666
48 | SEEDHEHKVLTELSRKDWRTGNEHDLERLMDPNVRVEVDGREHHGWESAHELAKHFHRFFKNATLEIRHEEIQGEYLHIEMIIRVGDKVFDVHFIARKINGRWVLTEFSVH | 0.261
49 | SEEDHELRIASEIMIKTTRTGDERLIKELFDPNTQIDFDGQELHGWKFVRRLDEEMRMHRSETKSYERYGDKIVIDIEVDVEFNGVRTRIRVTIIARKVNGRWLNEVMIIH | 1.14
50 | SEEDHFMKHLVDHWAKIEQTGDEHALHELLDPDARVSIKIGDKEHIVHGREYLIELWRQLGFKVIKIHDHTVFNGVVKLHGHWHFDGREVHVEQDLIIINGRVKTVLMRVK | 1.72
